The values below come from patent US20140274766A1, “METHODS OF USING F-SPONDIN AS A BIOMARKER FOR CARTILAGE DEGENERATIVE CONDITIONS AND BONE DISEASES” (priority 2009, published 2014).

One experiment has as its system human chondrocytes. Put plainly: PGE2 production by human chondrocytes (RIA), F-spondin supernatant and blocking antibodies. Format: cell-based. The conditions noted are these: supernatants from F-spondin transfected cells, 24 h, vs control vector supernatants. On the procedure: FIG. 11: Blocking of F-spondin function by antibody: Human chondrocytes were grown in monolayer culture. The cells were adapted to serum free medium conditions for 24 h before treating with either F-spondin transfected supernatant (150 uL), LM609 (αvβ3) or R1 (F-spondin blocking antibody) for 24 h and the culture supernatant was collected for PGE2 estimation by RIA. The data is representative of one of the three experiments. F-spondin induced production of PGE2 was inhibited by R1 (TSR 3-6 blocking antibody).
F-spondin consists of reelin, spondin and six TSR domains; these domains may activate various cellular functions by binding to different receptors. Previously, Terai et al (2001) have shown that F-spondin inhibits angiogenesis in endothelial cells by binding to αvβ3 (Terai Y, Abe M, Miyamoto K, Koike M, Yamasaki M, Ueda M, et al. Vascular smooth muscle cell growth-promoting factor/F-spondin inhibits angiogenesis via the blockade of integrin alphavbeta3 on vascular endothelial cells. J Cell Physiol 2001; 188(3):394-402). […] Accordingly, human chondrocytes were incubated with the supernatant from F-spondin transfected cell culture for 24 h and the levels of PGE2 were measured under various conditions (FIG. 11). […]

The test system of experiment [1] is latent TGF-β1 in OA cartilage explants. The experiment is described as follows: Activation of latent TGF-β1 in OA cartilage explant cultures (ELISA). In kind it is cell-based, human. Conditions: F-spondin 1 μg/ml, 24 h. How it is done: FIG. 12: Activation of Latent TGF-β1 by exogenous addition of F-spondin in OA cartilage explant cultures: Human OA cartilage was grown as explant cultures in serum free Ham'F-12 medium. All the conditions were done in triplicate. To the cartilage explants recombinant human F-spondin (1 ug/ml) or IL-1 (1 ng/ml) were added and supernatants were collected after 24 h. Both active and total TGF-β1 was estimated. Addition of F-spondin increased the levels of active TGF-β1 observed in explants cultures without significant increase in total latent TGF-β1 secretion.
The effect of F-spondin on latent TGF-β1 activation in OA cartilage explant cultures was studied by ELISA (R&D systems). Unstimulated OA cartilage explants spontaneously released both latent TGF-β1 (˜11 ng/g cartilage) and active TGF-β1 (200 pg/g cartilage) in culture supernatants (FIG. 12).

Experiment [2] concerns OA cartilage explant cultures. The conditions noted are these: cited from earlier work.
In experiment [3] the test system is chondrocytes in monolayer culture. The experiment is described as follows: F-spondin effects on genes/gene products, preliminary experiments with chondrocytes in monolayer culture. In kind it is cell-based, human. The arrangement: key to TNFα regulation / IL-1β regulation / AGC1 regulation / PGE2 regulation / MMP-13 regulation / TGF-β regulation / BMP-2 regulation / MMP-1 regulation / IL-8 regulation / IL-6 regulation / COL2A1 regulation: F-spondin-mediated upregulation*; downregulation**. How it is done: F-spondin induced both catabolic and anabolic gene/gene products in chondrocytes including BMP-2, type II collagen, TGF-β1, COX-2, mPGES and PGE2. To begin to address the question of whether selected F-spondin effects in cartilage are mediated by prostaglandin production, we have begun studies to characterize the effect of PGE2 in cartilage. Addition of PGE2 (1-10 uM) to cartilage explants inhibited type II collagen, aggrecan expression, ^35SO4 incorporation, as well as increased type II collagen degradation as assessed by C12C ELISA (IBEX). […] Relative to normals, NURR1 was overexpressed in OA cartilage (2-5 fold) and synovium (2 fold), confirmed by QPCR. Incubation of OA chondrocytes with PGE2 (1-10 uM) induced NURR1 expression (20-50 fold), as analyzed by QPCR. Since NURR1 binds to the NURR1 cis-acting sequence (NBRE) in the promoter region of a variety of genes, we examined the effect of adenoviral-mediated over-expression of NURR1 in chondrocytes.
For initial experiments, chondrocytes isolated from OA knee joints will be used, building from our previous observations using monolayer cultures of these cells (Attur M G, Dave M, Cipolletta C, Kang P, Goldring M B, Patel I R, et al. Reversal of autocrine and paracrine effects of interleukin 1 (IL-1) in human arthritis by type II IL-1 decoy receptor. Potential for pharmacological intervention. J Biol Chem 2000; 275(51):40307-15). However, because OA chondrocytes endogenously express F-spondin, at least initially, there is a potential for a masking effect between control and F-spondin-transduced cultures. To address this, experiments will also be performed in both “normal” chondrocytes isolated from non-arthritic cartilage (obtained from NDRI, Philadelphia) and immortalized C28I2 chondrocytes, where endogenous F-spondin expression is low and absent, respectively (unpublished data). Using this experimental culture system, we expect similar metabolic responses among chondrocyte sources, however if variation between sources is observed, to F-spondin either with or without IL-1, they will be noted and investigated further. For each group and time point, alginate cultures and conditioned cell culture media supernatants will be analyzed by quantitative PCR, ELISA and biochemical assays for molecular markers associated with cartilage anabolism and catabolism. Based on our preliminary findings with F-spondin and IL-1 treatment of monolayer chondrocytes, we predict that at least some of these molecules will be modulated in alginate cultures.

B1: F-spondin: 110 kDa, secreted, heparin-binding extracellular matrix glycoprotein; used as recombinant protein (R&D systems) or transfected-cell supernatant (protein, UniProt Q9HCB6 29-807, looked up)
Spondin-1: FSDETLDKVPKSEGYCSRILRAQGTRREGYTEFSLRVEGDPDFYKPGTSYRVTLSAAPPSYFRGFTLIALRENREGDKEEDHAGTFQIIDEEETQFMSNCPVAVTESTPRRRTRIQVFWIAPPAGTGCVILKASIVQKRIIYFQDEGSLTKKLCEQDSTFDGVTDKPILDCCACGTAKYRLTFYGNWSEKTHPKDYPRRANHWSAIIGGSHSKNYVLWEYGGYASEGVKQVAELGSPVKMEEEIRQQSDEVLTVIKAKAQWPAWQPLNVRAAPSAEFSVDRTRHLMSFLTMMGPSPDWNVGLSAEDLCTKECGWVQKVVQDLIPWDAGTDSGVTYESPNKPTIPQEKIRPLTSLDHPQSPFYDPEGGSITQVARVVIERIARKGEQCNIVPDNVDDIVADLAPEEKDEDDTPETCIYSNWSPWSACSSSTCDKGKRMRQRMLKAQLDLSVPCPDTQDFQPCMGPGCSDEDGSTCTMSEWITWSPCSISCGMGMRSRERYVKQFPEDGSVCTLPTEETEKCTVNEECSPSSCLMTEWGEWDECSATCGMGMKKRHRMIKMNPADGSMCKAETSQAEKCMMPECHTIPCLLSPWSEWSDCSVTCGKGMRTRQRMLKSLAELGDCNEDLEQVEKCMLPECPIDCELTEWSQWSECNKSCGKGHVIRTRMIQMEPQFGGAPCPETVQRKKCRIRKCLRNPSIQKLRWREARESRRSEQLKEESEGEQFPGCRMRPWTAWSECTKLCGGGIQERYMTVKKRFKSSQFTSCKDKKEIRACNVHPC
Consider B1, for which the PGE2 production result in the experiment on human chondrocytes is on record as “significantly increased”. In experiment [1], the “increase of active TGF-β1” value was 225% and the “total latent TGF-β1 synthesis” value is “without significant changes”. Besides, the “active TGF-β1 in culture supernatants” value in experiment [1] (unstimulated 200 pg/g cartilage) came out at 550 pg/g cartilage. In addition, in experiment [2], the MMP-13 secretion entry was “increase” and the “type II collagen degradation” value is “increase”. In experiment [3] (chondrocytes), the COX-2 gene/gene product result is “induced” and the mPGES gene/gene product result is on record as “induced”. For the same molecule, in experiment [3] (preliminary, monolayer culture), the AGC1 regulation result was “AGC1*”, the BMP-2 regulation result is reported as “BMP-2*”, the COL2A1 regulation result is given as “COL2A1*” and the IL-1β regulation entry is given as “IL-1β**”. For the same molecule, in experiment [3] (preliminary, monolayer culture), the IL-6 regulation entry was “IL-6*”, the IL-8 regulation entry is reported as “IL-8*”, the MMP-1 regulation entry is listed as “MMP-1**” and the MMP-13 regulation result was “MMP-13*”. In addition, in experiment [3] (preliminary, monolayer culture), the PGE2 regulation entry is given as “PGE2*”, the TGF-β regulation result is reported as “TGF-β*” and the TNFα regulation result is listed as “TNFα**”.
